# Experimental data taken from patent publication USRE47194 (Genentech, dated 2019).
# B1: A117C thio hu anti-MUC16 3A5 humanized variant (antibody, human IgG1, kappa, V domains shown)
# VH: EVQLVESGGGLVQPGGSLRLSCAASGYSITNDYAWNWVRQAPGKGLEWVGYISYSGYTTYNPSLKSRFTISRDTSKNTLYLQMNSLRAEDTAVYYCARWTSGLDYWGQGTLVTVSS
# VL: DIQMTQSPSSLSASVGDRVTITCKASDLIHNWLAWYQQKPGKAPKLLIYGATSLETGVPSRFSGSGSGTDFTLTISSLQPEDFATYYCQQYWTTPFTFGQGTKVEIKR
# notes: Full-length IgG expressed in CHO cells; Kabat A114C, Eu A118C) change; also called thio hu anti-MUC16 HC A117C 3A5; A117C thio hu 3A5
# Molecular target: portions of the MUC16 extracellular domain (ECD) (UniProt Q8NEV4)
# Experiment: surface plasmon resonance with portions of the MUC16 ECD
binder,measurement,value
B1,Kd,0.116 nM
